Measurements from patent US20140072613A1 (published 2014).

T1: EphA2(h) (human, UniProt P29317 559-976, limits assumed)
T1 sequence (looked up): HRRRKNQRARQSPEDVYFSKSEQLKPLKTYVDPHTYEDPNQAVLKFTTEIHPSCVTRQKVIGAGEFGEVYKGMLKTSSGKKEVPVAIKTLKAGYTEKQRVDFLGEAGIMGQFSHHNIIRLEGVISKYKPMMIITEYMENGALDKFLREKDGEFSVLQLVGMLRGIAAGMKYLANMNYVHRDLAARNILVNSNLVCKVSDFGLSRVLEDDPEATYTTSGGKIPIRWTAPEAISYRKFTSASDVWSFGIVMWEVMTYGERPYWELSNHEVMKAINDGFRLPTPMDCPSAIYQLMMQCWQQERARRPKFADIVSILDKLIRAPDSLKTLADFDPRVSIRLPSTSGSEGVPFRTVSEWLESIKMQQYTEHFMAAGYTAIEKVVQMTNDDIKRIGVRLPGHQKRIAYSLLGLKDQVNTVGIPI

T2: IRAK4(h) (human, UniProt Q9NWZ3 1-460, limits assumed)
T2 sequence (looked up): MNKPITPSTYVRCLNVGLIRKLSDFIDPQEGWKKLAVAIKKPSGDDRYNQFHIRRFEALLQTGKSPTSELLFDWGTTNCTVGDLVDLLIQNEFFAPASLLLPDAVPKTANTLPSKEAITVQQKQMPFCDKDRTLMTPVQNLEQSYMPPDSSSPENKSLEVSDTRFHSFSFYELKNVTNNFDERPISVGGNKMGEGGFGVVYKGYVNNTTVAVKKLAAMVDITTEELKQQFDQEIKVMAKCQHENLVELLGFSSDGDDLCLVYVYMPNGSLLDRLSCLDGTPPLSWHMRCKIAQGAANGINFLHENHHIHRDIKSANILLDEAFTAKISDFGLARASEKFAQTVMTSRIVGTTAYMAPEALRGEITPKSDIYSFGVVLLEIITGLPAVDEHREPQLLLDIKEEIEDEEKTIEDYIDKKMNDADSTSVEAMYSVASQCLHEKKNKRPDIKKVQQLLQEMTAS

T3: TBK1(h) (human, UniProt Q9UHD2 1-729)
T3 sequence (looked up): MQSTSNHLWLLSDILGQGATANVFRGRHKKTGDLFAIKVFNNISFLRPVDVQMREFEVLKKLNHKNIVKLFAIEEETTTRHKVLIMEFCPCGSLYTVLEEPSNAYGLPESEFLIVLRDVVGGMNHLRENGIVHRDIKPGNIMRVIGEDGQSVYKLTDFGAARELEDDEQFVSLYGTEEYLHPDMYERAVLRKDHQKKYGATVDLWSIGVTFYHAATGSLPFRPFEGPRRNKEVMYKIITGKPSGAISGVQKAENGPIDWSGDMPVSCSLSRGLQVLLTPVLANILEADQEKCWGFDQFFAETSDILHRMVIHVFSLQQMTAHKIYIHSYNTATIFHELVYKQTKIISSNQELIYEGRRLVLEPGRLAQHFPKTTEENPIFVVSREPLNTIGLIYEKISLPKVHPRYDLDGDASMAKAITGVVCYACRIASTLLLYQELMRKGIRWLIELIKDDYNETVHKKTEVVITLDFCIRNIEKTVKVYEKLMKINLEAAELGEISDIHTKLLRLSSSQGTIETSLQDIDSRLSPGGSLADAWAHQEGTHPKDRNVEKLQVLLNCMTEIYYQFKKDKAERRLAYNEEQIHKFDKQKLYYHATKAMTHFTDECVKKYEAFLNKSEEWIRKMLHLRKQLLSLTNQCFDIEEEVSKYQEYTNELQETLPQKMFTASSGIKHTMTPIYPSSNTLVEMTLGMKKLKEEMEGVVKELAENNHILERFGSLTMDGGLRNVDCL

T4: PKCζ(h) (human, UniProt Q05513 1-592)
T4 sequence (looked up): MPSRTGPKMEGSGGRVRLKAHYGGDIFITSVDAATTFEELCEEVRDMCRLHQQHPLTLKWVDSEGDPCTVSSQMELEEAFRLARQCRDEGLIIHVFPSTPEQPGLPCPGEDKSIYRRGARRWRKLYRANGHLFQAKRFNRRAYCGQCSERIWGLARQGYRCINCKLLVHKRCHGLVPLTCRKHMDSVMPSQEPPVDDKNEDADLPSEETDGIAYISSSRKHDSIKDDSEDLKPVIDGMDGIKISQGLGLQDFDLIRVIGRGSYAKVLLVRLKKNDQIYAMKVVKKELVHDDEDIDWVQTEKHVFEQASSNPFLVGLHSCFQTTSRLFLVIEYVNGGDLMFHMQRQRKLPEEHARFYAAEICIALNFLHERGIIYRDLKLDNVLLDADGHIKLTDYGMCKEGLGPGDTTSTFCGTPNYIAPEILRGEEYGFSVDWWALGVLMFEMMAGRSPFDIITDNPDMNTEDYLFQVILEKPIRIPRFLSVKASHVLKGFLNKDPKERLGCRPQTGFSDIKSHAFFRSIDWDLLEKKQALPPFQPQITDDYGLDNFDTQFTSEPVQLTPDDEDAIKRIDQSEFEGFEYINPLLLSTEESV


What was measured:
Experiment in all cases: cell-based or functional assay
EphA2(h) = biological target: T1, EphA2(h)
CLK3(h) = CLK3(h) (human, UniProt P49761 1-490, limits assumed)
IRAK4(h) = biological target: T2, IRAK4(h)
TBK1(h) = biological target: T3, TBK1(h)
PKCζ(h) = biological target: T4, PKCζ(h)
cKit(V654A)(h) = cKit(V654A)(h) (human, UniProt P10721 544-976)
cKit(V654A)(h), sequence (P10721 544-976 V654A): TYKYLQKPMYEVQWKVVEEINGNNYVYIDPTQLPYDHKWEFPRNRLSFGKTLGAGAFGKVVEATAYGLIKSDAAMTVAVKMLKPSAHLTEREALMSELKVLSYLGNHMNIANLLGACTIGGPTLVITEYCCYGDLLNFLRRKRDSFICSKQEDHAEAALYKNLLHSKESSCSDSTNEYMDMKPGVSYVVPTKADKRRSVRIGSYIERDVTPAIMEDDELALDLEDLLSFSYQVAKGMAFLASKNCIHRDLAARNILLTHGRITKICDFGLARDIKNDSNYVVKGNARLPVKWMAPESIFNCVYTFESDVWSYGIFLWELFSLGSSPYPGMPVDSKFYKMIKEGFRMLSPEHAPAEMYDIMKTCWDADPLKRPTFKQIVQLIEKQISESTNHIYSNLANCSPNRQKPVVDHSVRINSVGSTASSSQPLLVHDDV

CLK3(h), sequence (P49761 whole entry): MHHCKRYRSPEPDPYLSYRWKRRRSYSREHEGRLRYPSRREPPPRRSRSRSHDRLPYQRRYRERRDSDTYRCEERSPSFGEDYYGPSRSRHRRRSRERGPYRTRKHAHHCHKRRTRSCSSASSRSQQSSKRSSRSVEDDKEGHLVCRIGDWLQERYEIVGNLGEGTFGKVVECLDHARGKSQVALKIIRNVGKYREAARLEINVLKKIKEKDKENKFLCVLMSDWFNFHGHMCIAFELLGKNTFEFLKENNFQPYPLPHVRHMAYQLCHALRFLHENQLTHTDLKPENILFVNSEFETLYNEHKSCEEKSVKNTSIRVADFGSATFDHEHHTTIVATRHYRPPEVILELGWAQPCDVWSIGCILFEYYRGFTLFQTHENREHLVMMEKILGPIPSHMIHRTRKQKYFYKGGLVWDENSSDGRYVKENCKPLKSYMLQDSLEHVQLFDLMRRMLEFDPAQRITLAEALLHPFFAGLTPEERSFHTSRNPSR

Row | Binder | % activity, 100 µM (EphA2(h)) [%] | % activity, 100 µM (CLK3(h)) [%] | % activity, 100 µM (IRAK4(h)) [%] | % activity, 100 µM (TBK1(h)) [%] | % activity, 100 µM (PKCζ(h)) [%] | % activity, 100 µM (cKit(V654A)(h)) [%]
1 | FAKLAARLYRKALARQLGVAA [MMI-0300] | 31 | 61 | 59 | 37 | 81 | 134
2 | KAFAKLAARLYRKALARQLGVAA [MMI-0400] | 17 | 84 | 59 | 39 | 75 | 150
